The target in assay [1] is T1, 3T3 cells that over-express human cMet (Homo sapiens, UniProt P08581).
T1 construct: expressed in transfected cells; host or cells: 3T3 cells
Put plainly: Whole cell ELISA of peptide-displaying phage. Type of assay: cell-based. As to conditions: phage isolate; 3T3 cells expressing human cMet vs. non-expressing 3T3 cells. The essentials:
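3T3 cells over-expressing human cMet seeded 10^5/well, pelleted and fixed with 0.1% glutaraldehyde 12 min at 37 °C. Blocked peptide-displaying phage bound 1 h at room temperature; after PBST wash, bound phage detected with HRP-conjugated anti-M13 antibody.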

For another assay, the target named is cMet-Fc fusion protein (Homo sapiens, UniProt P08581). Put plainly: Protein phage ELISA: peptide-displaying phage binding to soluble cMet-Fc versus TRAIL-Fc. To be noted: phage isolate; cMet-Fc vs. TRAIL-Fc. The essentials: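 Plates coated with 0.5 μg/mL cMet-Fc or, as background, TRAIL-Fc, then blocked with 3% BSA in PBST. Peptide-displaying phage bound 2 h at room temperature. Detection with HRP-anti-M13 antibody.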
Sequence of cMet-Fc fusion protein (P08581 25-307 limits assumed): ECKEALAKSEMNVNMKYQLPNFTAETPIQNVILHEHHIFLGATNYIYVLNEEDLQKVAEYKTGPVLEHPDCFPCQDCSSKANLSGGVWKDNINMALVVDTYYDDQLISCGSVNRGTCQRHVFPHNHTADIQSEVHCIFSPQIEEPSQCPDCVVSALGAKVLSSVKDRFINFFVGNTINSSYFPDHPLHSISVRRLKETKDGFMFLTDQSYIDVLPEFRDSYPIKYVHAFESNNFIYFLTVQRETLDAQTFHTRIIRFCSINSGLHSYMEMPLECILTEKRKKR
Sequence of cMet-Fc fusion protein (P08581 with tags, fused parts or gaps limits assumed): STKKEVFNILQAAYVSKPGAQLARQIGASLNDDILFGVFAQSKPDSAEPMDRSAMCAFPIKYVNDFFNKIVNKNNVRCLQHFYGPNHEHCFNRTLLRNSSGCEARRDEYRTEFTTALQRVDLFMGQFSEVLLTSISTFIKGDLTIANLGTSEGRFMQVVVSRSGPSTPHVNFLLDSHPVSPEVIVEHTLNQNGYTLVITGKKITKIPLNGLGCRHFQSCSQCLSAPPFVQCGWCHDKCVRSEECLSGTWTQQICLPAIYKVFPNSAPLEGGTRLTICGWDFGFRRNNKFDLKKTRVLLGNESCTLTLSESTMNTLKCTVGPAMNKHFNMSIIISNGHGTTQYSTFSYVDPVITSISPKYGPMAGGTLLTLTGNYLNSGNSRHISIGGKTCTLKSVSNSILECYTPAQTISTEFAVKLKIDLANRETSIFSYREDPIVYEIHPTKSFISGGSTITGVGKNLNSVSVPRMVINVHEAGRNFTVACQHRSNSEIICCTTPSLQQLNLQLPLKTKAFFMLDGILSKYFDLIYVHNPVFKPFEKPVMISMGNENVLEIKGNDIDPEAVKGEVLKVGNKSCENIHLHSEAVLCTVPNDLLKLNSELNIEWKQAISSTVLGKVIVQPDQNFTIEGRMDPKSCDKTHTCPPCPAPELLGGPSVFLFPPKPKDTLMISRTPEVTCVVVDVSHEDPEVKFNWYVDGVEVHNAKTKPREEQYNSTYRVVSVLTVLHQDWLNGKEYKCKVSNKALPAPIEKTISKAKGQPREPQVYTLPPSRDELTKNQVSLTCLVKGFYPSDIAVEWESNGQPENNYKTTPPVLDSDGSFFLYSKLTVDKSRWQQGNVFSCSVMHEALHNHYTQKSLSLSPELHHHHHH
For orientation: ELISA stands for enzyme-linked immunosorbent assay.

T1 sequence (P08581 25-1390): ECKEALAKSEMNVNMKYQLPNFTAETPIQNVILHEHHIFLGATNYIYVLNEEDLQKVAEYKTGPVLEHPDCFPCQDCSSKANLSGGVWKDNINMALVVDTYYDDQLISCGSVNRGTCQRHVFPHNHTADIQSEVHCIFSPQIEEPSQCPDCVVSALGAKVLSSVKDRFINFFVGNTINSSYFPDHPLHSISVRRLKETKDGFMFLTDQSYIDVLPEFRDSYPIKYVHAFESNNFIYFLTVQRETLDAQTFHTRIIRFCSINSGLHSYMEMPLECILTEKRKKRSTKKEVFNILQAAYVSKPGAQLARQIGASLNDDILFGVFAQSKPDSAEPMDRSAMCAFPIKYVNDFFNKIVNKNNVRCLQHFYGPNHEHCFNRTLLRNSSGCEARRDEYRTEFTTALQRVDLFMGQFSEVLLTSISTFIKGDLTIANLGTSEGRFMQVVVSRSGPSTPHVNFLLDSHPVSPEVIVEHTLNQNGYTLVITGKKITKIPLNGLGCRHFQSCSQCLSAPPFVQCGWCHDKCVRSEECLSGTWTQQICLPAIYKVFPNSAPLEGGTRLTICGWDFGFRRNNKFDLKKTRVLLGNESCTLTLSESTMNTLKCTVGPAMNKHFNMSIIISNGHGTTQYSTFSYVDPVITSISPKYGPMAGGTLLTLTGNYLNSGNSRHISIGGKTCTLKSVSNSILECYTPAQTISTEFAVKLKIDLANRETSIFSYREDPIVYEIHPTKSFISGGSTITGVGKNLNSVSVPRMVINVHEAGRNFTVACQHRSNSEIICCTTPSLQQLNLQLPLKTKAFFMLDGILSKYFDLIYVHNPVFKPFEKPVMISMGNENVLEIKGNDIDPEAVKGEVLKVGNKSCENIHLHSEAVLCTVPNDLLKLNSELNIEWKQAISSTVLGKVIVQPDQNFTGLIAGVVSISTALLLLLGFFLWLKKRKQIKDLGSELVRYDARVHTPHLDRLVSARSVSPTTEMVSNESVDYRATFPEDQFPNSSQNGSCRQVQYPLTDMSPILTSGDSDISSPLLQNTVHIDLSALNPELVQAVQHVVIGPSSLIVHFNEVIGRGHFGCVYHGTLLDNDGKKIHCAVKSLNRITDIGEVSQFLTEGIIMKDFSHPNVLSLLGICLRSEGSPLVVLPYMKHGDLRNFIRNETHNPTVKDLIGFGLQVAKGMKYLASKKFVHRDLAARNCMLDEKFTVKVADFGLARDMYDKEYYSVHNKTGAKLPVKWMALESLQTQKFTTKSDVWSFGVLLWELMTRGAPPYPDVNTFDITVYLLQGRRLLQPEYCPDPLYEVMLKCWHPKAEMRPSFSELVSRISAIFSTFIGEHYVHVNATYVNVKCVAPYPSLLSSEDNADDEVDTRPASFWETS

“AGYPECKDNYHWCEWKGT (Synthetically generated cMet-binding peptide sequence) [SEQ ID NO: 024]”: in assay [1], the “WC ELISA” value is 1.30 fold over background. Also, the “Protein ELISA” value with cMet-Fc fusion protein is recorded as 14.5 fold over background.

For the compound “AGEIFCVGPPTFTCMWTGT (Synthetically generated cMet-binding peptide sequence) [SEQ ID NO: 096]”, the “WC ELISA” value in assay [1] is on record as 1.27 fold over background. In addition, the “Protein ELISA” value with cMet-Fc fusion protein is on record as 9.7 fold over background.

Take “AGQAVCEWGPFWCQMQGT (Synthetically generated cMet-binding peptide sequence) [SEQ ID NO: 031]”: the “WC ELISA” value in assay [1] came to 1.30 fold over background. For the same compound, the “Protein ELISA” value in the assay with cMet-Fc fusion protein was determined as 3.2 fold over background.

Turning to “GSDMNCTVLAQDQIFCFREAP (Synthetically generated cMet-binding peptide sequence) [SEQ ID NO: 386]”, in assay [1], the “WC ELISA” value was 1.37 fold over background. For the same compound, the “Protein ELISA” value with cMet-Fc fusion protein is 3.0 fold over background.

As to “AQVGESLDDGWTFFSDKWFDFF (Synthetically generated cMet-binding peptide sequence) [SEQ ID NO: 485]”, the “WC ELISA” value in assay [1] is on record as 1.17 fold over background. The “Protein ELISA” value with cMet-Fc fusion protein came out at 3.0 fold over background.

In the case of `CC[C@H](C)[C@H](NC(=O)[C@H](CC(=O)O)NC(=O)[C@H](Cc1ccccc1)NC(=O)[C@H](Cc1ccccc1)NC(=O)[C@H](CCC(=O)O)NC(=O)[C@H](Cc1c[nH]c2ccccc12)NC(=O)[C@@H](NC(=O)[C@H](CCC(=O)O)NC(=O)[C@H](CCCCN)NC(=O)[C@H](CCC(N)=O)NC(=O)[C@H](C)NC(C)=O)[C@@H](C)O)C(=O)N[C@H](C(=O)N[C@@H](Cc1ccc(O)cc1)C(=O)NCC(=O)N[C@@H](CO)C(=O)NCC(=O)N[C@@H](Cc1c[nH]c2ccccc12)C(=O)N[C@@H](CCCCN)C(=O)N[C@@H](Cc1ccccc1)C(=O)N[C@@H](CC(N)=O)C(=O)N[C@@H](CO)C(=O)N1CCC[C@H]1C(=O)NCC(=O)NCC(=O)NCC(=O)N[C@@H](CCCCNC(=O)c1ccc2c(c1)C(=O)OC21c2ccc(O)cc2Oc2cc(O)ccc21)C(N)=O)C(C)C` [SEQ ID NO: 466], the “WC ELISA” value in assay [1] is listed as 1.23 fold over background. For the same compound, on cMet-Fc fusion protein, the “Protein ELISA” value came out at 4.0 fold over background.

As to “AGSTDCRGHPTFECWGWGT (Synthetically generated cMet-binding peptide sequence) [SEQ ID NO: 086]”, in assay [1], the “WC ELISA” value was 1.30 fold over background. Further, the “Protein ELISA” value with cMet-Fc fusion protein was determined as 5.2 fold over background.

In the case of “AGKYMCEGFEWFCEMWGT (Synthetically generated cMet-binding peptide sequence) [SEQ ID NO: 037]”, the “WC ELISA” value in assay [1] was 1.43 fold over background. Also, the “Protein ELISA” value with cMet-Fc fusion protein is on record as 4.1 fold over background.

Regarding “AGETTCLGWPTFVCVDYGT (Synthetically generated cMet-binding peptide sequence) [SEQ ID NO: 063]”, the “WC ELISA” value in assay [1] was 1.27 fold over background. The “Protein ELISA” value in the assay with cMet-Fc fusion protein came out at 5.3 fold over background.

On to `CC(=O)N[C@@H](C)C(=O)NCC(=O)N[C@@H](CO)C(=O)N[C@@H](Cc1ccccc1)C(=O)N[C@@H](C)C(=O)N[C@H]1CSSC[C@@H](C(=O)N[C@H](C(=O)N[C@@H](CCC(=O)O)C(=O)N[C@@H](Cc2ccccc2)C(=O)NCC(=O)N[C@H](C(=O)NCC(=O)NCC(=O)NCC(=O)N[C@@H](CCCCNC(=O)c2ccc3c(c2)C(=O)OC32c3ccc(O)cc3Oc3cc(O)ccc32)C(N)=O)[C@@H](C)O)C(C)C)NC(=O)[C@H](C)NC(=O)[C@H](Cc2ccccc2)NC(=O)[C@H]([C@@H](C)O)NC(=O)[C@@H]2CCCN2C(=O)[C@@H]2CCCN2C(=O)CNC(=O)[C@H](CCCCN)NC1=O` [SEQ ID NO: 053], for which the “WC ELISA” value in assay [1] was 1.27 fold over background. Besides, the “Protein ELISA” value at cMet-Fc fusion protein is given as 18.1 fold over background.

For “AGYSVCKGYPSFECAFFGT (Synthetically generated cMet-binding peptide sequence) [SEQ ID NO: 075]”, the “WC ELISA” value in assay [1] worked out at 1.33 fold over background. Besides, in the assay with cMet-Fc fusion protein, the “Protein ELISA” value was determined as 5.8 fold over background.

“AQRDYLFYWNDGSYQPWQVFVG (Synthetically generated cMet-binding peptide sequence) [SEQ ID NO: 493]”: in assay [1], the “WC ELISA” value turned out to be 1.30 fold over background. Also, in the assay with cMet-Fc fusion protein, the “Protein ELISA” value was determined as 5.5 fold over background.

With “AQSDHDHAHWGVKHWPFRRYQ (Synthetically generated cMet-binding peptide sequence) [SEQ ID NO: 482]”, the “WC ELISA” value in assay [1] is 1.20 fold over background. Also, the “Protein ELISA” value with cMet-Fc fusion protein was 3.1 fold over background.

With “AGWSDCLGPPQFTCVHWGT (Synthetically generated cMet-binding peptide sequence) [SEQ ID NO: 083]”, the “WC ELISA” value in assay [1] stood at 1.33 fold over background. Further, in the assay with cMet-Fc fusion protein, the “Protein ELISA” value is reported as 3.9 fold over background.

As to “GSAGWCYTMNYVDQLCTYMAP (Synthetically generated cMet-binding peptide sequence) [SEQ ID NO: 387]”, the “WC ELISA” value in assay [1] was 1.43 fold over background. Moreover, the “Protein ELISA” value with cMet-Fc fusion protein was determined as 3.7 fold over background.

Consider `CC[C@H](C)[C@H](NC(=O)CNC(=O)[C@H](CCC(N)=O)NC(=O)[C@@H](NC(=O)[C@H](CCC(N)=O)NC(=O)[C@H](C)NC(C)=O)[C@@H](C)CC)C(=O)N[C@@H](CCC(N)=O)C(=O)N[C@@H](CCCCN)C(=O)N[C@H](C(=O)N[C@@H](CCC(=O)O)C(=O)N[C@@H](CCC(N)=O)C(=O)NCC(=O)N[C@@H](CCC(=O)O)C(=O)N[C@@H](Cc1ccccc1)C(=O)N[C@@H](Cc1ccc(O)cc1)C(=O)N[C@@H](Cc1c[nH]c2ccccc12)C(=O)N[C@@H](Cc1ccccc1)C(=O)N[C@@H](CC(N)=O)C(=O)N[C@@H](Cc1c[nH]c2ccccc12)C(=O)N[C@@H](Cc1ccccc1)C(=O)N1CCC[C@H]1C(=O)N[C@@H](C)C(=O)NCC(=O)NCC(=O)NCC(=O)N[C@@H](CCCCNC(=O)c1ccc2c(c1)C(=O)OC21c2ccc(O)cc2Oc2cc(O)ccc21)C(N)=O)[C@@H](C)O` [SEQ ID NO: 450], for which the “WC ELISA” value in assay [1] was 1.10 fold over background. In addition, on cMet-Fc fusion protein, the “Protein ELISA” value turned out to be 4.3 fold over background.

Take “AGTVYCSWESSECWWVGT (Synthetically generated cMet-binding peptide sequence) [SEQ ID NO: 019]”: the “WC ELISA” value in assay [1] turned out to be 1.37 fold over background. The “Protein ELISA” value with cMet-Fc fusion protein is recorded as 3.9 fold over background.

“GDLLVCKFDDKFWTETCEWADP (Synthetically generated cMet-binding peptide sequence) [SEQ ID NO: 392]”: the “WC ELISA” value in assay [1] is given as 1.47 fold over background. Moreover, the “Protein ELISA” value in the assay with cMet-Fc fusion protein was found to be 23.7 fold over background.

“AGVLQCIGFEWFCDIWGT (Synthetically generated cMet-binding peptide sequence) [SEQ ID NO: 022]”: the “WC ELISA” value in assay [1] is reported as 1.40 fold over background. Further, in the assay with cMet-Fc fusion protein, the “Protein ELISA” value came out at 3.4 fold over background.

For “AQHGYLSPLKQYQMSHVEFWTY (Synthetically generated cMet-binding peptide sequence) [SEQ ID NO: 476]”, in assay [1], the “WC ELISA” value worked out at 1.17 fold over background. Besides, the “Protein ELISA” value with cMet-Fc fusion protein is listed as 3.5 fold over background.

As for `CC(=O)N[C@@H](C)C(=O)NCC(=O)N[C@@H](CO)C(=O)N[C@@H](Cc1c[nH]c2ccccc12)C(=O)N[C@@H](Cc1c[nH]cn1)C(=O)N[C@H]1CSSC[C@@H](C(=O)N[C@@H](Cc2c[nH]c3ccccc23)C(=O)N[C@@H](CCC(=O)O)C(=O)N[C@@H](Cc2ccccc2)C(=O)NCC(=O)N[C@H](C(=O)NCC(=O)NCC(=O)NCC(=O)N[C@@H](CCCCNC(=O)c2ccc3c(c2)C(=O)OC32c3ccc(O)cc3Oc3cc(O)ccc32)C(N)=O)[C@@H](C)O)NC(=O)[C@H](CCC(=O)O)NC(=O)[C@H](Cc2ccccc2)NC(=O)[C@H](CO)NC(=O)[C@@H]2CCCN2C(=O)[C@@H]2CCCN2C(=O)CNC(=O)[C@H](C)NC1=O` [SEQ ID NO: 055], the “WC ELISA” value in assay [1] was 1.47 fold over background. The “Protein ELISA” value on cMet-Fc fusion protein was 18.3 fold over background.

Regarding “AQGGRYPFYDTDWFKWEMYVL (Synthetically generated cMet-binding peptide sequence) [SEQ ID NO: 496]”, the “WC ELISA” value in assay [1] was 1.30 fold over background. For the same compound, in the assay with cMet-Fc fusion protein, the “Protein ELISA” value was 3.8 fold over background.

As to “AGHYWCAGPPTFICMGPGT (Synthetically generated cMet-binding peptide sequence) [SEQ ID NO: 062]”, the “WC ELISA” value in assay [1] worked out at 1.40 fold over background. Besides, in the assay with cMet-Fc fusion protein, the “Protein ELISA” value was determined as 10.2 fold over background.

Turning to “AGKTVCQKWESVCSGMGT (Synthetically generated cMet-binding peptide sequence) [SEQ ID NO: 038]”, the “WC ELISA” value in assay [1] came out at 1.30 fold over background. Also, the “Protein ELISA” value with cMet-Fc fusion protein was 3.1 fold over background.

With “AGQYLCTQAALGCPEWGT (Synthetically generated cMet-binding peptide sequence) [SEQ ID NO: 029]”, the “WC ELISA” value in assay [1] was found to be 1.23 fold over background. In addition, the “Protein ELISA” value in the assay with cMet-Fc fusion protein is given as 4.3 fold over background.

Regarding “AGETFCVGNPSFECWSWGT (Synthetically generated cMet-binding peptide sequence) [SEQ ID NO: 094]”, the “WC ELISA” value in assay [1] is 1.27 fold over background. For the same compound, the “Protein ELISA” value with cMet-Fc fusion protein amounted to 10.3 fold over background.

Take “GSYYDCREFQCNKPAP (Synthetically generated cMet-binding peptide sequence) [SEQ ID NO: 002]”: the “WC ELISA” value in assay [1] amounted to 1.33 fold over background. The “Protein ELISA” value with cMet-Fc fusion protein amounted to 4.4 fold over background.

Turning to “AGAWNCEYPTFICEWQGA (Synthetically generated cMet-binding peptide sequence) [SEQ ID NO: 012]”, in assay [1], the “WC ELISA” value came to 1.27 fold over background. Moreover, the “Protein ELISA” value with cMet-Fc fusion protein stood at 4.5 fold over background.

The values above are taken from patent publication US9845340B2, “Peptides that specifically bind HGF receptor (cMet) and uses thereof” (Dyax Corp., priority 2003, dated 2017).
